In one data set the test system is MG-63 tumor cells. As to the kind of experiment: Synergistic cytotoxic activity with recombinant interferon-gamma on tumor cells (72 h, crystal violet). Conditions: for sensitivity / growth inhibition of MG-63 by the single substance: substance alone; for factor by which the cytotoxic effect induced by interferon-gamma alone is enhanced: 2 ng/ml interferon-gamma with 2 ng/ml lymphotoxin; for enhancement of the cytotoxicity induced by interferon-gamma (synergistic effect): mean of two independent experiments. The procedure: 2×10^3 cells in the exponential phase of growth were plated out in complete culture medium (RPMI 1640+10% FCS, both from Flow Laboratories, Meckenheim) in each well of a 96-well plate and were incubated overnight at 37° C. and 5% CO2 in an atmosphere saturated with water vapor. Then, maintaining the interferon-gamma (human recombinant) concentrations constant, the lymphotoxin or the lymphotoxin mutants were subjected to serial 5-fold dilution starting from a concentration of 10 ng/ml protein. The final volume was 150 μl in all the culture wells. Pure culture medium or cultivated cells without the addition of IFN-gamma and/or LT or LT mutants were used as controls. The culture plates were incubated for a further 72 h under the conditions indicated above and were then stained using the crystal violet stain as described under
The synergistic action of lymphotoxins with interferon-gamma was determined as follows:
a) the antiproliferative activity of interferon-gamma was determined from the optical densities of the samples by the following formula: [formula]
b) Determination of the cytotoxic activity of the combination of interferon-gamma and lymphotoxin using formula A.
c) Determination of the synergistic effect of lymphotoxins with interferon-gamma: [formula]
The figures given in the Table were determined as explained above under 12a to 12c and represent the means of two independent experiments.

For the next data set, the system named is Balb/c mice. As to the kind of experiment: Determination of acute toxicity, intravenous. Format: in vivo. The procedure: Male Balb/c mice from 4 to 6 weeks of age were used to determine the acute toxicity of the substances under investigation. The animals were randomized (5 animals in each group) and, following a one-week acclimatization period, they received various doses of the test substance (0.25-4.0 mg/kg body weight intravenously, injected into one of the lateral caudal veins). The volume administered was 10 ml/kg body weight; the injection was administered over a period of 10 seconds. The substances had been dissolved in physiological saline solution which contained 0.2% BSA (bovine serum albumin) immediately before the intravenous injection. Animals which received intravenous administration of 10 ml of physiological saline solution per kg of body weight, with 0.2% BSA, acted as controls. […] The following signs were noted: diarrhea, diminished locomotion, piloerection, cyanosis and death; in addition, the body temperature and weight of the animals were determined at regular intervals.

For data set [1] the following is noted: in vivo studies; cited from earlier work.
The subject of the next data set is L929. As to the kind of experiment: In vitro cytotoxic activity towards L929 (crystal violet stain, 48 h). Format: cell-based. Particulars: L929, 48 h; corrected by comparison with the control TNF standard. The method, then: 11. IN VITRO CYTOTOXIC ACTIVITY OF HUMAN RECOMBINANT LYMPHOTOXIN (LT) AND DELTA 23, DELTA 24 AND DELTA 25 LT MUTANTS TOWARDS THE TNF- AND LYMPHOTOXIN-SENSITIVE CELL LINES L929 AND WEHI-164
The substance was added the next day in 25 μl of complete culture medium per well. The initial concentration was 10 ng of protein per ml in each case; 2 duplicate titrations were carried out in series. The following controls were also set up on each culture plate: a) only culture medium; b) cells with culture medium but without lymphotoxin; c) a titrated TNF standard of known biological activity. After incubation for a further 48 h under the conditions indicated above, the surviving cells were stained with a solution of crystal violet (15 g of crystal violet, 7 g of NaCl, 646 ml of ethanol, 172.8 ml of 37% formaldehyde made up to 2 1 with H2 O. This entailed the culture medium being drained off and then the cells being stained with 50 μl of the solution at room temperature for 20 min. The culture plates were then washed with water until all the dyestuff which was not cell-bound had been removed. The cell-bound dyestuff was determined by photometry, after addition of 100 μl of measurement solution (50% ethanol, 0.1% acetic acid), at 540 nm using a Titertek Multiscan MCC/340 (Flow Laboratories, Meckenheim). […]

For data set [2], the system named is primary cell cultures and normal cell lines. Particulars: cited from earlier work.

B1: interferon-gamma: human recombinant interferon-gamma (protein, UniProt P01579 24-161, looked up)
Interferon gamma: QDPYVKEAENLKKYFNAGHSDVADNGTLFLGILKNWKEESDRKIMQSQIVSFYFKLFKNFKDDQSIQKSVETIKEDMNVKFFNSNKKKRDDFEKLTNYSVTDLNVQRKAIHELIQVMAELSPAAKTGKRKRSQMLFRG
Turning to B1, the “sensitivity / growth inhibition of MG-63 by the single substance” value in the data set with MG-63 tumor cells was “growth is inhibited dosedependently”.

B2: LT: lymphotoxin comparison substance, cloned and expressed in E. coli; product was a mixture of lymphotoxin derivatives (protein, UniProt P01374 35-205, looked up)
Lymphotoxin-alpha: LPGVGLTPSAAQTARQHPKMHLAHSTLKPAAHLIGDPSKQNSLLWRANTDRAFLQDGFSLSNNSLLVPTSGIYFVYSQVVFSGKAYSPKATSSPLYLAHEVQLFSSQYPFHVPLLSSQKMVYPGLQEPWLHSMYHGAAFQLTQGDQLSTHTDGIPHLVLSPSTVFFGAFAL
Take B2: the “time at which signs were detectable (as early as)” value in the data set with Balb/c mice (after the injection, especially at higher doses) amounted to 2 h. For the same molecule, the “severity of observed signs compared between substances” value with Balb/c mice (intravenous) is on record as “most pronounced”. The “signs observed after injection” value in the data set on Balb/c mice (intravenous, 0.25-4.0 mg/kg) was “dose- and time-dependent reduction in body temperature and weight and in locomotion, and induced piloerection and diarrhea”. Besides, in the data set on Balb/c mice (surviving animals, within the 7-day observation period), the reversibility of signs entry is recorded as “completely reversible in the surviving animals”. The “factor by which the cytotoxic effect induced by interferon-gamma alone is enhanced” value in the data set on MG-63 tumor cells (first measurement) was 1.57; with MG-63 tumor cells (second measurement), 1.41. Besides, the “enhancement of the cytotoxicity induced by interferon-gamma (synergistic effect)” value in the data set on MG-63 tumor cells (IFN-gamma 0.4 ng/ml, lymphotoxin 0.016 ng/ml) worked out at 1.42; in the data set on MG-63 tumor cells (IFN-gamma 0.4 ng/ml, lymphotoxin 0.08 ng/ml), 1.87; with MG-63 tumor cells (IFN-gamma 0.4 ng/ml, lymphotoxin 0.4 ng/ml) it was 1.75; in the data set with MG-63 tumor cells (IFN-gamma 0.4 ng/ml, lymphotoxin 2 ng/ml) it was 1.89; in the data set on MG-63 tumor cells (IFN-gamma 0.4 ng/ml, lymphotoxin 10 ng/ml) it was 2.16; in the data set on MG-63 tumor cells (IFN-gamma 2.0 ng/ml, lymphotoxin 0.016 ng/ml), 1.15. For the same molecule, the “enhancement of the cytotoxicity induced by interferon-gamma (synergistic effect)” value is recorded as 1.27 with MG-63 tumor cells (IFN-gamma 2.0 ng/ml, lymphotoxin 0.08 ng/ml); 1.40 with MG-63 tumor cells (IFN-gamma 2.0 ng/ml, lymphotoxin 0.4 ng/ml); 1.49 with MG-63 tumor cells (IFN-gamma 2.0 ng/ml, lymphotoxin 2 ng/ml); 1.61 with MG-63 tumor cells (IFN-gamma 2.0 ng/ml, lymphotoxin 10 ng/ml). The “sensitivity / growth inhibition of MG-63 by the single substance” value with MG-63 tumor cells is “not sensitive to lymphotoxin alone”. Besides, the antitumor effect result in data set [1] was “effective antitumor agent”. In addition, the “Activity (one unit = amount which induces 50% lysis of the given number of cells)” value in the data set with L929 was 6.1 × 10^7 U/mg protein. Further, the cytotoxic activity result in data set [2] is given as “less or nonexistent”.
